Assay results as given in the DeepSol protein solubility set.

Assay: soluble on expression in E. coli; label from the status in PepcDB or PDB records

| Sequence | soluble on expression in E. coli |
| --- | --- |
| MGSDKIHHHHHHMKALIFDVDDTLYDQIQPFERALERHIEVAREQIEPLYLSFRRYADEVFEATAIGKMSLKDSHIYRMKHALADFGYQVSDATALAIQIDYDYFQGQIELSPVFPEIFSWCQAQGIAMGIITNGPYRHQLRKIRTMGLVNWFELEHVLISGQVGITKPNPAIFQLMEERLGMSGEDICYLGDSFENDVVGAKAANWKAIWFNHRKRVEPTAPYYAYYVVTDWDELVEVIQSF | not soluble |
| LGKFSQTCYNSAIQGSVLTSTCERTNGGYNTSSIDLNSVIAAVDGSLKWPSNFIEACRNTQLAGSSELAAECKTAAGQFVSTKINLDDHIANIDGTLKYE | soluble |
| MAEPGGHEGPASTQRAKVCETHTAMVFFVEDRVYKRKKPVDLGFLDYTTRSSRRAVCEREIELNRRFAPDVYLGLGELRTPGEQEAEPLVVMRRMPDDRRLSHLVRTGAPVADDLRAVARHLAAWHSAAPRGPAIAEQGTRDALAARWEASFTQVDVLAAKGPTRDEAGEVERLVRRYLAGRKPLFGLRIEQGRVLDGHGDLLADDVFCLGDGPRILDCLEFDDALRYVDGLDDAAFLAMDLESLGAPESAAFFLAQYGEYSGDPAPPSLWHHYVAYRAFVRAKVSLIQARQGAPGAHATARRLVRMALRHLRASAVGLTLVAGLPGTGKSTLSGALADRLGAVLLSSDRLRKEMAGLSPQQTASADYGEGLYTPEWTARTYAELLDRAAALLALGESVVLDATWIDSAQREAARHTAESAGADLVALHCHVPDDVTAARLSTRAPGASDADLGVAEAMAAEEQPWSGAVGVDTGGSLEAAVGQALAAVRPWGSDQAKVFRRPYMEPDLEHHHHHH | not soluble |
| MVYRCTGCGQSQPKWSGQCGGCGQWNTLVEEIEAPAVGRRRAGYAGAAEGSMPVSLAEVSREDLSRVTSGLGELDRVLGGGVVPGSAILLGGDPGIGKSTLLLQTLAYLGKSARTLYVTGEESLSQVSLRAHRLGLDGHGIQALAETSLERILDTAERHKPEVLVVDSIQTVYSEALQSAPGSVGQVRECSAQLVRYAKQSSTTVFLVGHVTKEGALAGPRVLEHMVDTVLYFEGDASSRYRVVRSFKNRFGAVNELGVFAMTETGLKEVRNPSAIFLSRGDEDMPGSIVTVTREGSRPLLVEVQALVDESHLQSPRRLVVGMEMNRLAMLLAVLHRHGGVPVAAQDVFVNLVGGVRLTETAGDLAIACAVVSSFRDRPVPGEWVIFGELGLNGEIRPVPNGEERLREAAKHGFKYALVPAKNAPKQGVPGVSIIAARNLREAINALLEHHHHHH | soluble |
| MKTLLPTSTAGSLPKPSWLAEPEKLWSPWKLQGEELIDGKRDALRVALQEQELAGVDIVSDGEQTRQHFVTTFIEHLSGVDFENRKTVTIRNRYEASVPTVVGPVSRTKPVFVEDAKFLRQQTKQPIKWALPGPMTMIDTLYDDHYGSREKLAWEFAKILNQEAKELEAAGVDIIQFDEPAFNVFFDDVNEWGIACLERAIEGLKCETAVHICYGYGIKANTDWKQTLGTEWRQYEEVFPKLQQSNIDIISLECHNSRVPIELLELIRGKKVMVGAIDVATNEIETPEEVANTLREALKYVDADKLYPCTNCGMAPLSREVSTAKLNALSAGAEIVRRELSALEHHHHHH | not soluble |
| MASLRDIKAKINSTKKTSQITKAMEMVSASKLNRAEQNAKSFVPYMEKIQEVVASIAQGSKGINHPMLNARPVKRTGYIVITSDRGLAGGYNSNVLRTVSNVIRERHNMDSNQYSIIVLGRLGRDYLKRRGFNIIDEVVGLSDHPSFTDIKDLASRAIAMFADGAYDELYIYYNHYVSKISQEVTENKILPLTDVASDKPTTAYEFEPSEEEILKVLLPQYAESLVYGALLDGKASEHAARMTAMKSATDNAMEVIDSLTLSFNRARQAAITQEITEIVGGAAALE | not soluble |
| EQLPVLQTVPFAGSAEPVSLTRESVERSVGEANMQEQRKRVHAMLRDYELQLRINSDASQQDAHLTPDSE | not soluble |
| MPLADIADVDIDPKGVFKYILIQVTDNSTKQQKFVVRGYYRCSFHDDILQETKSSAPSDLKLKCVGGGRIKHDEIGKDILVYGYSYGYGRADHQIAVDILKQKYPDYNIHFSNDGY | not soluble |
| DIALTQPASVSGSPGQSITISCTGTSSDVGSNNYVSWYQQHPGKAPKLMIYGGSNRPSGVSNRFSGSKSGNTASLTISGLQAEDEADYYCRSWDSNLSYSVFGGGTKLTVLGQPKAAPSVTLFPPSSEELQANKATLVCLISDFYPGAVTVAWKADSSPVKAGVETTTPSKQSNNKYAASSYLSLTPEQWKSHRSYSCQVTHEGSTVEKTVAPTEA | soluble |
| MGYEGIIVVDVRDAEAYKECHIPTAISIPGNKINEDTTKRLSKEKVIITYCWGPACNGATKAAAKFAQLGFRVKELIGGIEYWRKENGEVEGTLGAKADLFWNMKKESLEHHHHHH | not soluble |
| MGSDKIHHHHHHMTIMDWNTIKGLVPVSGVQPDFVNCLDAFPVLKRAKETPQEPRYHGEGDVWTHTMMVIESLLQLPDYQTATREQQEILFFAALLHDVAKYRTTVIDPVTGQIGQPGHSRKGAIDARVLLWDADVPFAIREAICRLIAVHQVPFYCLEDERRRVSPIFTIRELSWQLSIPLLATLAEADIRGRICQDQTRVLDSIELFRELAREEGCYGQPRAFVDAHTRLSYFRGADVHPDYPLFQEPGSKVTVMCGLPASGKDTWVRTHRHDLPVVSFDDARTELGLKHGENEGKAVHWATDKARSLLRTHEPFVWNATHLSQQMRTRTLDLCYAYGAEVEIVYLERPRQELLRRNGKRDTTLSNKTLQGMLTKWELPSPTEAHVVRYES | not soluble |
| VTDHVREADDANIDDLLGDLGGTARAERAKLVEWLLEQGITPDEIRATNPPLLLATRHLVGDDGTYVSAREISENYGVDLELLQRVQRAVGLARVDDPDAVVHMRADGEAAARAQRFVELGLNPDQVVLVVRVLAEGLSHAAEAMRYTALEAIMRPGATELDIAKGSQALVSQIVPLLGPMIQDMLFMQLRHMMETEAVNAGERAAGKPLPGARQVTVAFADLVGFTQLGEVVSAEELGHLAGRLAGLARDLTAPPVWFIKTIGDAVMLVCPDPAPLLDTVLKLVEVVDTDNNFPRLRAGVASGMAVSRAGDWFGSPVNVASRVTGVARPGAVLVADSVREALGDAPEADGFQWSFAGPRRLRGIRGDVRLFRVRRGATRTGSGGAAQDDDLAGSSP | soluble |
| MALTSDTQLNDIMRAAEAHKRIRGNLQKILKPGCSVREIIKYVEDSTRIMLHGEKNNGIGFPCGVSLNNVAAHFSLNPWNEDIILTKNDVLKIDFGTHSNGRIVDSAFSVSFDEKYTNLLLATKEATERGIKVIGIDMAVCEIGKEISEVFKSFEFEENGKMINIKPIWNLNGHSIDQYKIHAGISIPSINNGDYSRITPGFFAIETFASTGIGEIKDYGECSHFALASRPTTNKIYDKKNEEILNLIKKEFGTLPFSHQHLLYYTQNAKAAVQLLAARKFIDSYPPLVDIPKSYVAQFEHTLYITEKSKFNISKGDDYEGHHHHHH | soluble |
| MNSFIEGAHQPLLSVWRRAFLFSGALLLTACSHNASPPPFTASGFAGDHGAVRIWRKDTNDEVHLLSVFSPWHSGSTTTSEYRWQGDTLSLIELNIYSKPPEHIRARFDAHGELSFMQREVGGQKQQLSNDQIALYRYRAEQIRQTSDALRLGRVILRQGRWHADHTVTTCEGETLKPDLDSWAISHIERRQNHSSVEVSVAWLEAPEGSQLLLVANSDFCHWQPQAKSF | not soluble |
| MSLAEIRIRPLEVSALSRRLCIWADIVDASGVLLNSAPVWFDVSAMGEVWTPSTDAEKGTAVDVHPLKREFIDVAAAGIEPASRREIEGKEFSRRVESGQPITKDVLRAIPEIKNGDIVFVEVRVGTVFLRSRAEAMHDAYIGDRIKLKSVSSGETMLGVVLSAGRVWIGSEGHHHHHH | not soluble |
